One series concerns Homo sapiens. Kind of series: Drug level in human assessed as retention time treated with 40 mg, po of scutellarin measured up to 20 hrs by mass defect filter chromatogram analysis. It counts as ADME, organism-based.
Substrate in series [1]: O=c1cc(-c2ccc(O)cc2)oc2cc(O)c(O)c(O)c12
The series is described as follows: Drug metabolism assessed as human recombinant UGT1A6-mediated formation of scutellarein-7-O-glucuronide after 25 mins by HPLC/UV analysis. The format is ADME.

Substrate in series [2]: O=c1cc(-c2ccc(O)cc2)oc2cc(O)c(O)c(O)c12
Kind of series: Drug metabolism assessed as human recombinant UGT1A9-mediated formation of scutellarein-7-O-glucuronide after 25 mins by HPLC/UV analysis. The format is ADME.

Substrate in series [3]: O=c1cc(-c2ccc(O)cc2)oc2cc(O)c(O)c(O)c12
Kind of series: Drug metabolism assessed as human recombinant UGT1A9-mediated formation of scutellarein-6-O-glucuronide after 25 mins by HPLC/UV analysis. It counts as ADME.

Substrate in series [4]: O=c1cc(-c2ccc(O)cc2)oc2cc(O)c(O)c(O)c12
The series is described as follows: Drug metabolism assessed as human recombinant UGT1A7-mediated formation of scutellarein-7-O-glucuronide after 25 mins by HPLC/UV analysis. It counts as ADME.

Substrate in series [5]: O=c1cc(-c2ccc(O)cc2)oc2cc(O)c(O)c(O)c12
The series is described as follows: Drug metabolism assessed as human recombinant UGT1A3-mediated formation of scutellarein-7-O-glucuronide after 25 mins by HPLC/UV analysis. It counts as ADME.

Substrate in series [6]: O=c1cc(-c2ccc(O)cc2)oc2cc(O)c(O)c(O)c12
The series is described as follows: Drug metabolism assessed as human recombinant UGT1A8-mediated formation of scutellarein-7-O-glucuronide after 25 mins by HPLC/UV analysis. It counts as ADME.

Substrate in series [7]: O=c1cc(-c2ccc(O)cc2)oc2cc(O)c(O)c(O)c12
Kind of series: Drug metabolism assessed as human recombinant UGT2B7-mediated formation of scutellarein-6-O-glucuronide after 25 mins by HPLC/UV analysis. The format is ADME.

Substrate in series [8]: O=C(O)[C@H]1O[C@@H](Oc2c(O)cc3oc(-c4ccc(O)cc4)cc(=O)c3c2O)[C@H](O)[C@@H](O)[C@@H]1O
The series is described as follows: Drug uptake assessed as OATP2B1 (unknown origin)-mediated drug transport expressed in HEK293 cells after 7 mins by LC-MS/MS analysis. It counts as ADME, cell-based, Homo sapiens.

Substrate in series [9]: O=c1cc(-c2ccc(O)cc2)oc2cc(O)c(O)c(O)c12
Kind of series: Drug metabolism assessed as human recombinant UGT1A10-mediated formation of scutellarein-7-O-glucuronide after 25 mins by HPLC/UV analysis. It counts as ADME.

Substrate in series [10]: O=c1cc(-c2ccc(O)cc2)oc2cc(O)c(O)c(O)c12
Kind of series: Drug metabolism assessed as human recombinant UGT1A10-mediated formation of scutellarein-6-O-glucuronide after 25 mins by HPLC/UV analysis. It counts as ADME.

With `O=C(O)[C@H]1O[C@@H](Oc2cc3oc(-c4ccc(O)cc4)cc(=O)c3c(O)c2O[C@@H]2O[C@H](C(=O)O)[C@@H](O)[C@H](O)[C@H]2O)[C@H](O)[C@@H](O)[C@@H]1O`, the Retention_time in the series on Homo sapiens was 6.02 min.

B1: UDP-glucuronosyltransferase 1A6 (Homo sapiens) (protein)
chain: MACLLRSFQRISAGVFFLALWGMVVGDKLLVVPQDGSHWLSMKDIVEVLSDRGHEIVVVVPEVNLLLKESKYYTRKIYPVPYDQEELKNRYQSFGNNHFAERSFLTAPQTEYRNNMIVIGLYFINCQSLLQDRDTLNFFKESKFDALFTDPALPCGVILAEYLGLPSVYLFRGFPCSLEHTFSRSPDPVSYIPRCYTKFSDHMTFSQRVANFLVNLLEPYLFYCLFSKYEELASAVLKRDVDIITLYQKVSVWLLRYDFVLEYPRPVMPNMVFIGGINCKKRKDLSQEFEAYINASGEHGIVVFSLGSMVSEIPEKKAMAIADALGKIPQTVLWRYTGTRPSNLANNTILVKWLPQNDLLGHPMTRAFITHAGSHGVYESICNGVPMVMMPLFGDQMDNAKRMETKGAGVTLNVLEMTSEDLENALKAVINDKSYKENIMRLSSLHKDRPVEPLDLAVFWVEFVMRHKGAPHLRPAAHDLTWYQYHSLDVIGFLLAVVLTVAFITFKCCAYGYRKCLGKKGRVKKAHKSKTH
On to B1, for which, in series [1], the Km worked out at 27 µM, the Vmax was 0.00167 µmol/min/mg and the Vmax/Km is 62 µL/min/mg.

B2: UDP-glucuronosyltransferase 1A9 (Homo sapiens) (protein)
chain: MACTGWTSPLPLCVCLLLTCGFAEAGKLLVVPMDGSHWFTMRSVVEKLILRGHEVVVVMPEVSWQLGRSLNCTVKTYSTSYTLEDLDREFKAFAHAQWKAQVRSIYSLLMGSYNDIFDLFFSNCRSLFKDKKLVEYLKESSFDAVFLDPFDNCGLIVAKYFSLPSVVFARGILCHYLEEGAQCPAPLSYVPRILLGFSDAMTFKERVRNHIMHLEEHLLCHRFFKNALEIASEILQTPVTEYDLYSHTSIWLLRTDFVLDYPKPVMPNMIFIGGINCHQGKPLPMEFEAYINASGEHGIVVFSLGSMVSEIPEKKAMAIADALGKIPQTVLWRYTGTRPSNLANNTILVKWLPQNDLLGHPMTRAFITHAGSHGVYESICNGVPMVMMPLFGDQMDNAKRMETKGAGVTLNVLEMTSEDLENALKAVINDKSYKENIMRLSSLHKDRPVEPLDLAVFWVEFVMRHKGAPHLRPAAHDLTWYQYHSLDVIGFLLAVVLTVAFITFKCCAYGYRKCLGKKGRVKKAHKSKTH
Turning to B2, in series [2], the Km came out at 5.49 µM, the Vmax stood at 0.00463 µmol/min/mg and the Vmax/Km worked out at 843 µL/min/mg. Also, in series [3], the Km was 10.9 µM, the Vmax came to 0.00167 µmol/min/mg and the Vmax/Km is 153 µL/min/mg.

B3: UDP-glucuronosyltransferase 1A7 (Homo sapiens) (protein)
chain: MARAGWTGLLPLYVCLLLTCGFAKAGKLLVVPMDGSHWFTMQSVVEKLILRGHEVVVVMPEVSWQLGRSLNCTVKTYSTSYTLEDQDREFMVFADARWTAPLRSAFSLLTSSSNGIFDLFFSNCRSLFNDRKLVEYLKESCFDAVFLDPFDACGLIVAKYFSLPSVVFARGIFCHYLEEGAQCPAPLSYVPRLLLGFSDAMTFKERVWNHIMHLEEHLFCPYFFKNVLEIASEILQTPVTAYDLYSHTSIWLLRTDFVLEYPKPVMPNMIFIGGINCHQGKPVPMEFEAYINASGEHGIVVFSLGSMVSEIPEKKAMAIADALGKIPQTVLWRYTGTRPSNLANNTILVKWLPQNDLLGHPMTRAFITHAGSHGVYESICNGVPMVMMPLFGDQMDNAKRMETKGAGVTLNVLEMTSEDLENALKAVINDKSYKENIMRLSSLHKDRPVEPLDLAVFWVEFVMRHKGAPHLRPAAHDLTWYQYHSLDVIGFLLAVVLTVAFITFKCCAYGYRKCLGKKGRVKKAHKSKTH
For B3, in [4], the Km was 33.3 µM, the maximum rate (Vmax) was 0.000795 µmol/min/mg and the Vmax/Km worked out at 23.9 µL/min/mg.

B4: UDP-glucuronosyltransferase 1A3 (Homo sapiens) (protein)
chain: MATGLQVPLPWLATGLLLLLSVQPWAESGKVLVVPIDGSHWLSMREVLRELHARGHQAVVLTPEVNMHIKEENFFTLTTYAISWTQDEFDRHVLGHTQLYFETEHFLKKFFRSMAMLNNMSLVYHRSCVELLHNEALIRHLNATSFDVVLTDPVNLCAAVLAKYLSIPTVFFLRNIPCDLDFKGTQCPNPSSYIPRLLTTNSDHMTFMQRVKNMLYPLALSYICHAFSAPYASLASELFQREVSVVDILSHASVWLFRGDFVMDYPRPIMPNMVFIGGINCANRKPLSQEFEAYINASGEHGIVVFSLGSMVSEIPEKKAMAIADALGKIPQTVLWRYTGTRPSNLANNTILVKWLPQNDLLGHPMTRAFITHAGSHGVYESICNGVPMVMMPLFGDQMDNAKRMETKGAGVTLNVLEMTSEDLENALKAVINDKSYKENIMRLSSLHKDRPVEPLDLAVFWVEFVMRHKGAPHLRPAAHDLTWYQYHSLDVIGFLLAVVLTVAFITFKCCAYGYRKCLGKKGRVKKAHKSKTH
As for B4, in series [5], the Km turned out to be 7.34 µM, the Vmax is 0.00178 µmol/min/mg and the Vmax/Km was determined as 243 µL/min/mg.

B5: UDP-glucuronosyltransferase 1A8 (Homo sapiens) (protein)
chain: MARTGWTSPIPLCVSLLLTCGFAEAGKLLVVPMDGSHWFTMQSVVEKLILRGHEVVVVMPEVSWQLGKSLNCTVKTYSTSYTLEDLDREFMDFADAQWKAQVRSLFSLFLSSSNGFFNLFFSHCRSLFNDRKLVEYLKESSFDAVFLDPFDACGLIVAKYFSLPSVVFARGIACHYLEEGAQCPAPLSYVPRILLGFSDAMTFKERVRNHIMHLEEHLFCQYFSKNALEIASEILQTPVTAYDLYSHTSIWLLRTDFVLDYPKPVMPNMIFIGGINCHQGKPLPMEFEAYINASGEHGIVVFSLGSMVSEIPEKKAMAIADALGKIPQTVLWRYTGTRPSNLANNTILVKWLPQNDLLGHPMTRAFITHAGSHGVYESICNGVPMVMMPLFGDQMDNAKRMETKGAGVTLNVLEMTSEDLENALKAVINDKSYKENIMRLSSLHKDRPVEPLDLAVFWVEFVMRHKGAPHLRPAAHDLTWYQYHSLDVIGFLLAVVLTVAFITFKCCAYGYRKCLGKKGRVKKAHKSKTH
For B5, in [6], the Km was 19 µM, the Vmax was 0.000673 µmol/min/mg and the Vmax/Km came out at 35.4 µL/min/mg.

B6: UDP-glucuronosyltransferase 2B7 (Homo sapiens) (protein)
chain: MSVKWTSVILLIQLSFCFSSGNCGKVLVWAAEYSHWMNIKTILDELIQRGHEVTVLASSASILFDPNNSSALKIEIYPTSLTKTELENFIMQQIKRWSDLPKDTFWLYFSQVQEIMSIFGDITRKFCKDVVSNKKFMKKVQESRFDVIFADAIFPCSELLAELFNIPFVYSLSFSPGYTFEKHSGGFIFPPSYVPVVMSELTDQMTFMERVKNMIYVLYFDFWFEIFDMKKWDQFYSEVLGRPTTLSETMGKADVWLIRNSWNFQFPYPLLPNVDFVGGLHCKPAKPLPKEMEDFVQSSGENGVVVFSLGSMVSNMTEERANVIASALAQIPQKVLWRFDGNKPDTLGLNTRLYKWIPQNDLLGHPKTRAFITHGGANGIYEAIYHGIPMVGIPLFADQPDNIAHMKARGAAVRVDFNTMSSTDLLNALKRVINDPSYKENVMKLSRIQHDQPVKPLDRAVFWIEFVMRHKGAKHLRVAAHDLTWFQYHSLDVIGFLLVCVATVIFIVTKCCLFCFWKFARKAKKGKND
Regarding B6, in series [7], the Km amounted to 11.5 µM, the Vmax was determined as 8.9e-05 µmol/min/mg and the Vmax/Km amounted to 7.74 µL/min/mg.

B7: Solute carrier organic anion transporter family member 2B1 (Homo sapiens) (protein)
chain: MGPRIGPAGEVPQVPDKETKATMGTENTPGGKASPDPQDVRPSVFHNIKLFVLCHSLLQLAQLMISGYLKSSISTVEKRFGLSSQTSGLLASFNEVGNTALIVFVSYFGSRVHRPRMIGYGAILVALAGLLMTLPHFISEPYRYDNTSPEDMPQDFKASLCLPTTSAPASAPSNGNCSSYTETQHLSVVGIMFVAQTLLGVGGVPIQPFGISYIDDFAHNSNSPLYLGILFAVTMMGPGLAFGLGSLMLRLYVDINQMPEGGISLTIKDPRWVGAWWLGFLIAAGAVALAAIPYFFFPKEMPKEKRELQFRRKVLAVTDSPARKGKDSPSKQSPGESTKKQDGLVQIAPNLTVIQFIKVFPRVLLQTLRHPIFLLVVLSQVCLSSMAAGMATFLPKFLERQFSITASYANLLIGCLSFPSVIVGIVVGGVLVKRLHLGPVGCGALCLLGMLLCLFFSLPLFFIGCSSHQIAGITHQTSAHPGLELSPSCMEACSCPLDGFNPVCDPSTRVEYITPCHAGCSSWVVQDALDNSQVFYTNCSCVVEGNPVLAGSCDSTCSHLVVPFLLLVSLGSALACLTHTPSFMLILRGVKKEDKTLAVGIQFMFLRILAWMPSPVIHGSAIDTTCVHWALSCGRRAVCRYYNNDLLRNRFIGLQFFFKTGSVICFALVLAVLRQQDKEARTKESRSSPAVEQQLLVSGPGKKPEDSRV
Consider B7, for which the Michaelis-Menten constant (Km) in series [8] was determined as 1.77 µM.

B8: UDP-glucuronosyltransferase 1A10 (Homo sapiens) (protein)
chain: MARAGWTSPVPLCVCLLLTCGFAEAGKLLVVPMDGSHWFTMQSVVEKLILRGHEVVVVMPEVSWQLERSLNCTVKTYSTSYTLEDQNREFMVFAHAQWKAQAQSIFSLLMSSSSGFLDLFFSHCRSLFNDRKLVEYLKESSFDAVFLDPFDTCGLIVAKYFSLPSVVFTRGIFCHHLEEGAQCPAPLSYVPNDLLGFSDAMTFKERVWNHIVHLEDHLFCQYLFRNALEIASEILQTPVTAYDLYSHTSIWLLRTDFVLDYPKPVMPNMIFIGGINCHQGKPLPMEFEAYINASGEHGIVVFSLGSMVSEIPEKKAMAIADALGKIPQTVLWRYTGTRPSNLANNTILVKWLPQNDLLGHPMTRAFITHAGSHGVYESICNGVPMVMMPLFGDQMDNAKRMETKGAGVTLNVLEMTSEDLENALKAVINDKSYKENIMRLSSLHKDRPVEPLDLAVFWVEFVMRHKGAPHLRPAAHDLTWYQYHSLDVIGFLLAVVLTVAFITFKCCAYGYRKCLGKKGRVKKAHKSKTH
As for B8, in series [9], the Km worked out at 5.68 µM, the Vmax stood at 0.000318 µmol/min/mg and the Vmax/Km was 55.9 µL/min/mg. In series [10], the Km stood at 2.74 µM, the maximum rate (Vmax) stood at 3.8e-05 µmol/min/mg and the Vmax/Km was determined as 13.7 µL/min/mg.

In general, Km refers to the substrate concentration at which the rate is half of its maximum. One may read the Vmax as the rate approached at saturating substrate.
